Measurements: US20110111494A1 (APOGENIX, published 2011)

T1: recombinant CD95-ligand (UniProt P48023 142-281, limits assumed)
T1 sequence (looked up): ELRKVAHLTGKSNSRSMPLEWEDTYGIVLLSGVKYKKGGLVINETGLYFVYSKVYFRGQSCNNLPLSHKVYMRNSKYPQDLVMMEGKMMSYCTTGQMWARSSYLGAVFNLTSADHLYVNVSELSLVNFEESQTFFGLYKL

B1: hs95R-AT4-St (CD95R-T4 foldon fusion polypeptide) (receptor)
chain: RLSSKSVNAQVTDINSKGLELRKTVTTVETQNLEGLHHDGQFCHKPCPPGERKARDCTVNGDEPDCVPCQEGKEYTDKAHFSSKCRRCRLCDEGHGLEVEINCTRTQNTKCRCKPNFFCNSTVCEHCDPCTKCEHGIIKECTLTSNTKCKEEGSSGSSGSSGSGYIPEAPRDGQAYVRKDGEWVLLSTFLSGPSSSSSSAWSHPQFEK
B2: hs95R-A69-St (CD95R-RB69 fusion polypeptide) (receptor)
chain: RLSSKSVNAQVTDINSKGLELRKTVTTVETQNLEGLHHDGQFCHKPCPPGERKARDCTVNGDEPDCVPCQEGKEYTDKAHFSSKCRRCRLCDEGHGLEVEINCTRTQNTKCRCKPNFFCNSTVCEHCDPCTKCEHGIIKECTLTSNTKCKEEGSSGSSGSSGSGYIEDAPSDGKFYVRKDGAWVELPTASGPSSSSSSAWSHPQFEK
B3: hs95R-ASPD-St (CD95R-SP-D fusion polypeptide) (receptor)
chain: RLSSKSVNAQVTDINSKGLELRKTVTTVETQNLEGLHHDGQFCHKPCPPGERKARDCTVNGDEPDCVPCQEGKEYTDKAHFSSKCRRCRLCDEGHGLEVEINCTRTQNTKCRCKPNFFCNSTVCEHCDPCTKCEHGIIKECTLTSNTKCKEEGSSGSSGSSGSGLPDVASLRQQVEALQGQVQHLQAAFSQYKKVELFPNGQSVGEKIFKTAGFVKPFTEAQLLCTQAGGQLASPRSAAENAALQQLVVAKNEAAFLSMTDSKTEGKFTYPTGESLVYSNWAPGEPNDDGGSEDCVEIFTNGKWNDRACGEKRLVVCEFGGSPSSSSSSAWSHPQFEK

What follows are molecules tested against T1, recombinant CD95-ligand (assay: cell-based or functional assay).
In the case of “dimeric CD95R-Fc fusion protein APG101 (from UniProt P25445 26-172)”, the EC50 (inhibition of CD95L-induced apoptosis of Jurkat cells, Caspase 3/7 activity, Ac-DEVD-AFC cleavage) is reported as 0.595 µg/mL. For B1, the “EC50 (inhibition of CD95L-induced apoptosis of Jurkat cells, Caspase 3/7 activity, Ac-DEVD-AFC cleavage)” value was 0.0926 µg/mL. B2 was tested, and the “EC50 (inhibition of CD95L-induced apoptosis of Jurkat cells, Caspase 3/7 activity, Ac-DEVD-AFC cleavage)” value was 0.0876 µg/mL. In the case of B3, the “EC50 (inhibition of CD95L-induced apoptosis of Jurkat cells, Caspase 3/7 activity, Ac-DEVD-AFC cleavage)” value is reported as 0.573 µg/mL.
